These results are taken from patent US20210002376A1 (UNIVERSIT T STUTTGART, published 2021).

The target of one test is T1, TNFR1-Fc fusion protein (UniProt P19438 29-197).
T1 construct: range 29-197; Coated antigen in ELISA; not shown: Fc part of the fusion, not described
T1 sequence (looked up): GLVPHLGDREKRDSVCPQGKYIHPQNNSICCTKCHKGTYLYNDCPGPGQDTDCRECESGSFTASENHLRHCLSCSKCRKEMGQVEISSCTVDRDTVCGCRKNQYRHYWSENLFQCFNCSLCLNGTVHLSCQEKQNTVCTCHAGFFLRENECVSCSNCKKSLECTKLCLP
The test can be described thus: ELISA, coated TNFR1-Fc, anti-human Fab-HRP.

Test [1] concerns the target T2, TNFR2-Fc (Enbrel) fusion protein (UniProt P20333 23-257).
T2 construct: extracellular domain; Commercial product (Enbrel) used as coated antigen
T2 sequence (looked up): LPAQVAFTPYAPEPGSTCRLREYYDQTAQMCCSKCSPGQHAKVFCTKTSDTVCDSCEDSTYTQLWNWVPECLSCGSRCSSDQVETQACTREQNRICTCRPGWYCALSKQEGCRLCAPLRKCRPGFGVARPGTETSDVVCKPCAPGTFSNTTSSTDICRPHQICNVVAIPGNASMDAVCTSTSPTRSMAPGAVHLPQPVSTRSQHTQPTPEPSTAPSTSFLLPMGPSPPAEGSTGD
Description: ELISA, coated TNFR2-Fc (Enbrel), anti-human Fab-HRP.

A further test deals with T3, TNFR2 (on Kym-1 cells) (UniProt P20333 23-461, limits assumed).
T3 sequence (looked up): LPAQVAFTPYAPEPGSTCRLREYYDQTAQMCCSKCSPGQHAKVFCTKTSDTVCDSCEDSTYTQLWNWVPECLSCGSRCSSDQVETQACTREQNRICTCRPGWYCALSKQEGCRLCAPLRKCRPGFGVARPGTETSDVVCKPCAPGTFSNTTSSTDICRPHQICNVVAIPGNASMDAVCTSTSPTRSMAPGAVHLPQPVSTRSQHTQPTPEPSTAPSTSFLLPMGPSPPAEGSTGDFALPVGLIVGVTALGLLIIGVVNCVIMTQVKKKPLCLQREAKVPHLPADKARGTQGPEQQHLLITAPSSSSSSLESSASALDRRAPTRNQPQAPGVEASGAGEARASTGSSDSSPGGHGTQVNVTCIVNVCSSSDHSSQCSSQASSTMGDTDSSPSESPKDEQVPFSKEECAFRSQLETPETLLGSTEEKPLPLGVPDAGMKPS
Description: cell-based or functional assay.

B1: DbTNFR2xTNFR2-Ig (antibody, human IgG1, kappa)
heavy: QVQLQQSGAEVKKPGSAVKVSCKASGGTFSSYAISWVRQAPGQGLEWMGRIIPILGIANYAQKFQGRVTITADKSTSTAYMELSSLRSEDTAVYYCARDGLGDAFDIWGQGTMVTVSSGGGGSQSALTQPRSVSGSPGQSITISCTGTSSDVGGYNYVSWYQQHPGKAPKLMIYDVSNRPSGVSNRFSGSKSGNTASLTISGLQAEDEADYYCSSYTSSSTLVVFGGGTKLTVLASTKGPSVFPLAPSSKSTSGGTAALGCLVKDYFPEPVTVSWNSGALTSGVHTFPAVLQSSGLYSLSSVVTVPSSSLGTQTYICNVNHKPSNTKVDKKVEPKSCDKTHTCPPCPAPPVAGPSVFLFPPKPKDTLMISRTPEVTCVVVDVSHEDPEVKFNWYVDGVEVHNAKTKPREEQYNSTYRVVSVLTVLHQDWLNGKEYKCKVSNKGLPSSIEKTISKAKGQPREPQVYTLPPSRDELTKNQVSLTCLVKGFYPSDIAVEWESNGQPENNYKTTPPVLDSDGSFFLYSKLTVDKSRWQQGNVFSCSVMHEALHNHYTQKSLSLSPGK
light: QVQLQQSGAEVKKPGSAVKVSCKASGGTFSSYAISWVRQAPGQGLEWMGRIIPILGIANYAQKFQGRVTITADKSTSTAYMELSSLRSEDTAVYYCARDGLGDAFDIWGQGTMVTVSSGGGGSQSALTQPRSVSGSPGQSITISCTGTSSDVGGYNYVSWYQQHPGKAPKLMIYDVSNRPSGVSNRFSGSKSGNTASLTISGLQAEDEADYYCSSYTSSSTLVVFGGGTKLTVLRTVAAPSVFIFPPSDEQLKSGTASVVCLLNNFYPREAKVQWKVDNALQSGNSQESVTEQDSKDSTYSLSSTLTLSKADYEKHKVYACEVTHQGLSSPVTKSFNRGEC
notes: variable domains originate from IgG15
Regarding B1, the binding result in the test with TNFR1-Fc fusion protein is recorded as “no binding”. Moreover, a half-maximal effect in test [1] (EC50) was put at 0.7 nM. Also, in the test with TNFR2 (on Kym-1 cells), the “EC50 of cell death induction, Kym-1 cells, MTT assay after 24 hours” value is roughly 56 pM and the “fold increase of bioactivity against the bivalent antibody” value is roughly 500 fold.
